# Columns and labels:
# HLA-A*01:01 = experiment: IEDB peptide-MHC binding, purified MHC/direct/fluorescence; filed as Kd, often an IC50 or EC50 that approximates it; ≥ and ≤ were set here for values at or beyond the usual limits of such assays
# HLA-A*80:01 = experiment: as above
# HLA-A*26:02 [1] = experiment: as above; settings: source organism: Yellow fever virus
# HLA-B*15:03 = experiment: IEDB peptide-MHC binding, purified MHC/competitive/radioactivity; filed as Kd, often an IC50 or EC50 that approximates it; ≥ and ≤ were set here for values at or beyond the usual limits of such assays; settings: source organism: Vaccinia virus WR
# HLA-B*58:01 = experiment: IEDB peptide-MHC binding, purified MHC/direct/fluorescence; filed as Kd, often an IC50 or EC50 that approximates it; ≥ and ≤ were set here for values at or beyond the usual limits of such assays
# HLA-B*57:01 = experiment: as above
# HLA-B*08:02 = experiment: as above
# HLA-A*31:01 = experiment: as above
# HLA-A*11:01 = experiment: as above
# HLA-B*46:01 = experiment: as above
# HLA-B*48:01 = experiment: as above
# HLA-C*07:02 = experiment: as above; settings: source organism: Variola virus
# HLA-A*69:01 = experiment: as above
# HLA-B*15:01 [2] = experiment: as above
# HLA-B*07:02 = experiment: as above
# HLA-A*68:02 = experiment: as above
# HLA-B*08:01 = experiment: as above
# HLA-B*15:09 = experiment: IEDB peptide-MHC binding, purified MHC/competitive/fluorescence; filed as Kd, often an IC50 or EC50 that approximates it; ≥ and ≤ were set here for values at or beyond the usual limits of such assays
# HLA-B*27:05 [3] = experiment: as above; settings: source organism: Variola virus
# HLA-B*15:17 [4] = experiment: as above; settings: source organism: Variola virus
# HLA-A*26:01 [5] = experiment: as above; settings: source organism: Variola virus
# HLA-A*26:02 [6] = experiment: as above
# HLA-A*02:01 [7] = experiment: as above; settings: source organism: Variola virus
# HLA-B*39:01 = experiment: as above
# HLA-B*27:05 [8] = experiment: IEDB peptide-MHC binding, purified MHC/direct/fluorescence; filed as Kd, often an IC50 or EC50 that approximates it; ≥ and ≤ were set here for values at or beyond the usual limits of such assays; settings: source organism: Mycobacterium tuberculosis
# HLA-B*15:17 [9] = experiment: as above; settings: source organism: Mycobacterium tuberculosis
# HLA-B*08:03 = experiment: as above; settings: source organism: Mycobacterium tuberculosis str. Haarlem
# HLA-B*40:01 = experiment: as above; settings: source organism: Mycobacterium tuberculosis
# HLA-A*02:01 [10] = experiment: as above; settings: source organism: Mycobacterium tuberculosis
# HLA-A*02:06 = experiment: IEDB peptide-MHC binding, purified MHC/competitive/fluorescence; filed as Kd, often an IC50 or EC50 that approximates it; ≥ and ≤ were set here for values at or beyond the usual limits of such assays; settings: source organism: Mycobacterium tuberculosis variant bovis BCG str. Pasteur 1173P2
# HLA-A*26:03 = experiment: as above; settings: source organism: Mycobacterium tuberculosis variant bovis BCG str. Pasteur 1173P2
# HLA-B*15:01 [11] = experiment: as above; settings: source organism: Mycobacterium tuberculosis variant bovis BCG str. Pasteur 1173P2
# HLA-B*18:01 [12] = experiment: as above; settings: source organism: Mycobacterium tuberculosis variant bovis BCG str. Pasteur 1173P2
# HLA-A*03:01 = experiment: IEDB peptide-MHC binding, purified MHC/direct/fluorescence; filed as Kd, often an IC50 or EC50 that approximates it; ≥ and ≤ were set here for values at or beyond the usual limits of such assays; settings: source organism: Mycobacterium tuberculosis
# HLA-A*26:01 [13] = experiment: as above; settings: source organism: Mycobacterium tuberculosis str. Haarlem
# HLA-B*18:01 [14] = experiment: as above; settings: source organism: Mycobacterium tuberculosis
# HLA-B*51:01 = experiment: as above; settings: source organism: Mycobacterium tuberculosis
# HLA-B*14:02 = experiment: as above; settings: source organism: Homo sapiens
# [15] = source organism: Camelpox virus CMS
# [16] = source organism: Camelpox virus M-96
# [17] = source organism: Mycobacterium tuberculosis
# [18] = source organism: Mycobacterium tuberculosis str. Haarlem
# [19] = source organism: Mycobacterium tuberculosis C
sequence,measurement,setting,value
ITDFNIDTY,Kd,HLA-A*01:01; [15],≤ 0.001 µM
same,Kd,HLA-A*80:01; [15],0.307 µM
EVDQTKIQY,Kd,HLA-A*80:01; source organism: Yellow fever virus,≥ 20 µM
same,Kd,HLA-A*26:02 [1],1.61 µM
SQIETGTPF,Kd,HLA-B*15:03,0.00133 µM
same,Kd,HLA-B*58:01; [16],≥ 20 µM
same,Kd,HLA-B*57:01; [16],≥ 20 µM
same,Kd,HLA-B*08:02; source organism: Variola virus,≥ 20 µM
same,Kd,HLA-A*31:01; [16],≥ 20 µM
same,Kd,HLA-A*11:01; [16],≥ 20 µM
same,Kd,HLA-A*01:01; [16],≥ 20 µM
same,Kd,HLA-B*46:01; [16],3.06 µM
same,Kd,HLA-B*48:01; [16],1.65 µM
same,Kd,HLA-C*07:02,≥ 20 µM
same,Kd,HLA-A*69:01; [16],≥ 20 µM
same,Kd,HLA-B*15:01 [2]; [16],0.014 µM
same,Kd,HLA-B*07:02; [16],≥ 20 µM
same,Kd,HLA-A*68:02; [16],≥ 20 µM
same,Kd,HLA-B*08:01; source organism: Variola virus,≥ 20 µM
same,Kd,HLA-B*15:09; source organism: Variola virus,0.0673 µM
same,Kd,HLA-B*27:05 [3],≥ 20 µM
same,Kd,HLA-B*15:17 [4],≥ 20 µM
same,Kd,HLA-A*26:01 [5],1.79 µM
same,Kd,HLA-A*26:02 [6]; source organism: Variola virus,0.0008 µM
same,Kd,HLA-A*02:01 [7],≥ 20 µM
same,Kd,HLA-B*39:01; source organism: Variola virus,0.0146 µM
KVMVICYAY,Kd,HLA-B*58:01; [17],0.705 µM
same,Kd,HLA-B*57:01; [17],≥ 20 µM
same,Kd,HLA-B*08:02; [18],≥ 20 µM
same,Kd,HLA-A*31:01; [17],4.16 µM
same,Kd,HLA-B*27:05 [8],≥ 20 µM
same,Kd,HLA-B*15:17 [9],6.9 µM
same,Kd,HLA-A*11:01; [17],0.492 µM
same,Kd,HLA-A*01:01; [17],11.8 µM
same,Kd,HLA-B*46:01; [17],≥ 20 µM
same,Kd,HLA-B*48:01; [17],≥ 20 µM
same,Kd,HLA-B*08:03,≥ 20 µM
same,Kd,HLA-A*69:01; [17],≥ 20 µM
same,Kd,HLA-B*40:01,≥ 20 µM
same,Kd,HLA-B*07:02; [17],≥ 20 µM
same,Kd,HLA-A*02:01 [10],≥ 20 µM
same,Kd,HLA-A*68:02; [17],≥ 20 µM
same,Kd,HLA-B*08:01; [18],≥ 20 µM
same,Kd,HLA-A*02:06,≥ 20 µM
same,Kd,HLA-A*26:03,≥ 20 µM
same,Kd,HLA-B*15:01 [11],≥ 20 µM
same,Kd,HLA-B*18:01 [12],3.29 µM
same,Kd,HLA-A*26:02 [6]; source organism: Mycobacterium tuberculosis variant bovis BCG str. Pasteur 1173P2,≥ 20 µM
RPAPATGAL,Kd,HLA-B*58:01; [17],≥ 20 µM
same,Kd,HLA-B*57:01; [17],≥ 20 µM
same,Kd,HLA-B*08:02; [18],≥ 20 µM
same,Kd,HLA-A*31:01; [17],≥ 20 µM
same,Kd,HLA-B*27:05 [8],≥ 20 µM
same,Kd,HLA-B*15:17 [9],≥ 20 µM
same,Kd,HLA-A*11:01; [17],≥ 20 µM
same,Kd,HLA-A*01:01; [17],≥ 20 µM
same,Kd,HLA-B*46:01; [17],≥ 20 µM
same,Kd,HLA-B*48:01; [17],≥ 20 µM
same,Kd,HLA-A*69:01; [17],0.739 µM
same,Kd,HLA-B*15:01 [2]; [17],≥ 20 µM
same,Kd,HLA-B*40:01,≥ 20 µM
same,Kd,HLA-A*03:01,≥ 20 µM
same,Kd,HLA-A*26:01 [13],≥ 20 µM
same,Kd,HLA-B*18:01 [14],≥ 20 µM
same,Kd,HLA-A*02:01 [10],≥ 20 µM
same,Kd,HLA-B*51:01,≥ 20 µM
same,Kd,HLA-B*08:01; [18],≥ 20 µM
same,Kd,HLA-B*15:09; [19],0.0786 µM
same,Kd,HLA-B*39:01; [19],0.0042 µM
LQRIHAEI,Kd,HLA-B*14:02,0.133 µM

# — the Immune Epitope Database (IEDB)
